T1: HIS-tagged human CD73 (huCD73-HIS) (human, UniProt P21589 27-547)
T1 sequence: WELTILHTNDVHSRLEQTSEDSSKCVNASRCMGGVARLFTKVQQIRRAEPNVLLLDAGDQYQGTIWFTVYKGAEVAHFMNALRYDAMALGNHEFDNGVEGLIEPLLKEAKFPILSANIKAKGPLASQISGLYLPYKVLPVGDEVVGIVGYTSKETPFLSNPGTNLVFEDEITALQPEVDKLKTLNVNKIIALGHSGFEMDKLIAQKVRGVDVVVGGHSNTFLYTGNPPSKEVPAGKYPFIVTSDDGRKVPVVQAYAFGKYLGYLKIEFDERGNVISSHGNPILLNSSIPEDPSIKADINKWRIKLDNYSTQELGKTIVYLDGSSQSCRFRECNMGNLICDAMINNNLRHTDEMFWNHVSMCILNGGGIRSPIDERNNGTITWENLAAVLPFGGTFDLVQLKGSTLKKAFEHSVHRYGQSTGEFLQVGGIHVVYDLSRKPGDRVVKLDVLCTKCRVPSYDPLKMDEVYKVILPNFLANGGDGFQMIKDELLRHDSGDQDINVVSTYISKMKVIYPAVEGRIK

T2: human CD73 expressed on the surface of cells (human, UniProt P21589 27-549)
T2 sequence: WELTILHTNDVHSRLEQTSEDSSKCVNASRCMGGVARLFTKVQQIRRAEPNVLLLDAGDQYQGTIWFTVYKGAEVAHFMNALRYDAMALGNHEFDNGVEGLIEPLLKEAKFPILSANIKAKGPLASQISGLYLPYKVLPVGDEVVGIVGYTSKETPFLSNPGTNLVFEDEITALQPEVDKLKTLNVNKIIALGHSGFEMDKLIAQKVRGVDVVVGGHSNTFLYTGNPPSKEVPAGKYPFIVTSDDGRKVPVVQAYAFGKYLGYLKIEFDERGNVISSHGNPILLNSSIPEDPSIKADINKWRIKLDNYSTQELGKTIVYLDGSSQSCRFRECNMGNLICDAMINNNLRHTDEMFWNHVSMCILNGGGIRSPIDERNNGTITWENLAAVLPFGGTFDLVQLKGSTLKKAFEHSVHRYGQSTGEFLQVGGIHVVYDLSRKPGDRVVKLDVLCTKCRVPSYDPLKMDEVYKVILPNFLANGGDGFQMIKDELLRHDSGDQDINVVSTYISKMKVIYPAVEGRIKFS

B1: 60A9-H1L1 (antibody, V domains shown)
VH: EVQLVESGGGLVQPGQSLKLSCKASGYAFSSYWMNWVRQAPGKGLEWMGQIYPGDGDTYYNPSVKGRFTISADTSKNTAYLQLNNLRAEDTAVYYCAREAIYYGNYVFTYWGQGTLVTVSS
VL: DIQMTQSPSLLSASLGDRVTITCKSSQSLLNSSNQKNYLAWYQQKPGQSPKLLIYFASTRDSGVPDRFSGSGSGTDFTLTISSLEPEDFATYYCQQHYSTPLTFGGGTKLEIK
B2: 60A9-H4L2 (antibody, V domains shown)
VH: EVQLVESGGGLVQPGQSLKLSCKASGYAFSSYWMNWVRQAPGKGLEWIGQIYPGDGDTYYSGSVKGRATLSADKSKNTAYLQLNNLRAEDTAVYYCAREAIYYGNYVFTYWGQGTLVTVSS
VL: DIVMTQSPSSLSASLGDRVTITCKSSQSLLNSSNQKNYLAWYQQKPGQSPKLLIYFASTRDSGVPDRFSGSGSGTDFTLTISSLEPEDFATYYCQQHYSTPLTFGGGTKLEIK
B3: 60A9-H3L2 (antibody, V domains shown)
VH: EVQLVESGGGLVQPGQSLKLSCKASGYAFSSYWMNWVRQAPGKGLEWIGQIYPGDGDTYYNPSVKGRATLSADKSKNTAYLQLNNLRAEDTAVYYCAREAIYYGNYVFTYWGQGTLVTVSS
VL: DIVMTQSPSSLSASLGDRVTITCKSSQSLLNSSNQKNYLAWYQQKPGQSPKLLIYFASTRDSGVPDRFSGSGSGTDFTLTISSLEPEDFATYYCQQHYSTPLTFGGGTKLEIK
B4: 60A9-H1L2 (antibody, V domains shown)
VH: EVQLVESGGGLVQPGQSLKLSCKASGYAFSSYWMNWVRQAPGKGLEWMGQIYPGDGDTYYNPSVKGRFTISADTSKNTAYLQLNNLRAEDTAVYYCAREAIYYGNYVFTYWGQGTLVTVSS
VL: DIVMTQSPSSLSASLGDRVTITCKSSQSLLNSSNQKNYLAWYQQKPGQSPKLLIYFASTRDSGVPDRFSGSGSGTDFTLTISSLEPEDFATYYCQQHYSTPLTFGGGTKLEIK
B5: 60A9-H3L1 (antibody, V domains shown)
VH: EVQLVESGGGLVQPGQSLKLSCKASGYAFSSYWMNWVRQAPGKGLEWIGQIYPGDGDTYYNPSVKGRATLSADKSKNTAYLQLNNLRAEDTAVYYCAREAIYYGNYVFTYWGQGTLVTVSS
VL: DIQMTQSPSLLSASLGDRVTITCKSSQSLLNSSNQKNYLAWYQQKPGQSPKLLIYFASTRDSGVPDRFSGSGSGTDFTLTISSLEPEDFATYYCQQHYSTPLTFGGGTKLEIK
B6: 60A9-H2L2 (antibody, V domains shown)
VH: EVQLVESGGGLVQPGGSLRLSCKASGYAFSSYWMNWVRQAPGKGLEWVGQIYPGDGDTYYNPSVKGRFTISADTSKNTLYLQMNSLRAEDTAVYYCAREAIYYGNYVFTYWGQGTLVTVSS
VL: DIVMTQSPSSLSASLGDRVTITCKSSQSLLNSSNQKNYLAWYQQKPGQSPKLLIYFASTRDSGVPDRFSGSGSGTDFTLTISSLEPEDFATYYCQQHYSTPLTFGGGTKLEIK
B7: 60A9-H4L1 (antibody, V domains shown)
VH: EVQLVESGGGLVQPGQSLKLSCKASGYAFSSYWMNWVRQAPGKGLEWIGQIYPGDGDTYYSGSVKGRATLSADKSKNTAYLQLNNLRAEDTAVYYCAREAIYYGNYVFTYWGQGTLVTVSS
VL: DIQMTQSPSLLSASLGDRVTITCKSSQSLLNSSNQKNYLAWYQQKPGQSPKLLIYFASTRDSGVPDRFSGSGSGTDFTLTISSLEPEDFATYYCQQHYSTPLTFGGGTKLEIK
B8: 60A9-H2L3 (antibody, V domains shown)
VH: EVQLVESGGGLVQPGGSLRLSCKASGYAFSSYWMNWVRQAPGKGLEWVGQIYPGDGDTYYNPSVKGRFTISADTSKNTLYLQMNSLRAEDTAVYYCAREAIYYGNYVFTYWGQGTLVTVSS
VL: DIQMTQSPSLLSASLGDRVTITCKSSQSLLNSSNQKNYLAWYQQKPGQSPKLLVYFASTRDSGVPDRFSGSGSGTDFTLTISSLEPEDFATYYCQQHYSTPLTFGGGTKLEIK
B9: 60A9-H1L3 (antibody, V domains shown)
VH: EVQLVESGGGLVQPGQSLKLSCKASGYAFSSYWMNWVRQAPGKGLEWMGQIYPGDGDTYYNPSVKGRFTISADTSKNTAYLQLNNLRAEDTAVYYCAREAIYYGNYVFTYWGQGTLVTVSS
VL: DIQMTQSPSLLSASLGDRVTITCKSSQSLLNSSNQKNYLAWYQQKPGQSPKLLVYFASTRDSGVPDRFSGSGSGTDFTLTISSLEPEDFATYYCQQHYSTPLTFGGGTKLEIK
B10: 60A9-H4L3 (antibody, V domains shown)
VH: EVQLVESGGGLVQPGQSLKLSCKASGYAFSSYWMNWVRQAPGKGLEWIGQIYPGDGDTYYSGSVKGRATLSADKSKNTAYLQLNNLRAEDTAVYYCAREAIYYGNYVFTYWGQGTLVTVSS
VL: DIQMTQSPSLLSASLGDRVTITCKSSQSLLNSSNQKNYLAWYQQKPGQSPKLLVYFASTRDSGVPDRFSGSGSGTDFTLTISSLEPEDFATYYCQQHYSTPLTFGGGTKLEIK
B11: 60A9-H2L1 (antibody, V domains shown)
VH: EVQLVESGGGLVQPGGSLRLSCKASGYAFSSYWMNWVRQAPGKGLEWVGQIYPGDGDTYYNPSVKGRFTISADTSKNTLYLQMNSLRAEDTAVYYCAREAIYYGNYVFTYWGQGTLVTVSS
VL: DIQMTQSPSLLSASLGDRVTITCKSSQSLLNSSNQKNYLAWYQQKPGQSPKLLIYFASTRDSGVPDRFSGSGSGTDFTLTISSLEPEDFATYYCQQHYSTPLTFGGGTKLEIK
B12: 60A9-H5L2 (antibody, V domains shown)
VH: EVQLVESGGGLVQPGQSLKLSCKASGYAFSSYWMNWVKQRPGKGLEWIGQIYPGDGDTYYSGKFKGRATLSADKSKNTAYLQLNNLRAEDTAVYYCAREAIYYGNYVFTYWGQGTLVTVSS
VL: DIVMTQSPSSLSASLGDRVTITCKSSQSLLNSSNQKNYLAWYQQKPGQSPKLLIYFASTRDSGVPDRFSGSGSGTDFTLTISSLEPEDFATYYCQQHYSTPLTFGGGTKLEIK
B13: 60A9-H4L4 (antibody, V domains shown)
VH: EVQLVESGGGLVQPGQSLKLSCKASGYAFSSYWMNWVRQAPGKGLEWIGQIYPGDGDTYYSGSVKGRATLSADKSKNTAYLQLNNLRAEDTAVYYCAREAIYYGNYVFTYWGQGTLVTVSS
VL: DIVMTQSPSLLSASLGDRVTISCKSSQSLLNSSNQKNYLAWYQQKPGQSPKLLVYFASTRDSGVPDRFSGSGSGTDFTLTISSLEPEDFATYFCQQHYSTPLTFGAGTKLEIK
B14: 60A9-H3L4 (antibody, V domains shown)
VH: EVQLVESGGGLVQPGQSLKLSCKASGYAFSSYWMNWVRQAPGKGLEWIGQIYPGDGDTYYNPSVKGRATLSADKSKNTAYLQLNNLRAEDTAVYYCAREAIYYGNYVFTYWGQGTLVTVSS
VL: DIVMTQSPSLLSASLGDRVTISCKSSQSLLNSSNQKNYLAWYQQKPGQSPKLLVYFASTRDSGVPDRFSGSGSGTDFTLTISSLEPEDFATYFCQQHYSTPLTFGAGTKLEIK
B15: 60A9-H5L1 (antibody, V domains shown)
VH: EVQLVESGGGLVQPGQSLKLSCKASGYAFSSYWMNWVKQRPGKGLEWIGQIYPGDGDTYYSGKFKGRATLSADKSKNTAYLQLNNLRAEDTAVYYCAREAIYYGNYVFTYWGQGTLVTVSS
VL: DIQMTQSPSLLSASLGDRVTITCKSSQSLLNSSNQKNYLAWYQQKPGQSPKLLIYFASTRDSGVPDRFSGSGSGTDFTLTISSLEPEDFATYYCQQHYSTPLTFGGGTKLEIK
B16: 60A9-H2L4 (antibody, V domains shown)
VH: EVQLVESGGGLVQPGGSLRLSCKASGYAFSSYWMNWVRQAPGKGLEWVGQIYPGDGDTYYNPSVKGRFTISADTSKNTLYLQMNSLRAEDTAVYYCAREAIYYGNYVFTYWGQGTLVTVSS
VL: DIVMTQSPSLLSASLGDRVTISCKSSQSLLNSSNQKNYLAWYQQKPGQSPKLLVYFASTRDSGVPDRFSGSGSGTDFTLTISSLEPEDFATYFCQQHYSTPLTFGAGTKLEIK
B17: 60A9-H5L3 (antibody, V domains shown)
VH: EVQLVESGGGLVQPGQSLKLSCKASGYAFSSYWMNWVKQRPGKGLEWIGQIYPGDGDTYYSGKFKGRATLSADKSKNTAYLQLNNLRAEDTAVYYCAREAIYYGNYVFTYWGQGTLVTVSS
VL: DIQMTQSPSLLSASLGDRVTITCKSSQSLLNSSNQKNYLAWYQQKPGQSPKLLVYFASTRDSGVPDRFSGSGSGTDFTLTISSLEPEDFATYYCQQHYSTPLTFGGGTKLEIK

For the first assay, the target named is T1, HIS-tagged human CD73 (huCD73-HIS). Kind of assay: cell-based or functional assay.
On to B1, for which the “IC50 (nM), huCD73 enzymatic assay in solution” value (“IC50 (nM) … in solution” below) came out at 3.34 nM.

With B2, the “IC50 (nM) … in solution” value amounted to 4.97 nM.

Consider B3, for which the “IC50 (nM) … in solution” value came out at 4.97 nM.

As to B4, the “IC50 (nM) … in solution” value is 6.17 nM.

In the case of B5, the “IC50 (nM) … in solution” value worked out at 2.94 nM.

Turning to B6, the “IC50 (nM) … in solution” value was found to be 11.2 nM.

For B7, the “IC50 (nM) … in solution” value turned out to be 3.1 nM.

As for B8, the “IC50 (nM) … in solution” value turned out to be 4.57 nM.

Consider B9, for which the “IC50 (nM) … in solution” value came to 4.96 nM.

As for B10, the “IC50 (nM) … in solution” value turned out to be 2.74 nM.

Consider B11, for which the “IC50 (nM) … in solution” value was found to be 4.13 nM.

Another assay addresses T2, human CD73 expressed on the surface of …. The assay is described as follows: cell-based or functional assay.
For the molecule B12, the “IC50 (nM), cell-based CD73 activity assay (A375 cells)” value (shortened to “IC50 (nM) … (A375 cells)”) worked out at 57.3 nM.

With B13, the “IC50 (nM) … (A375 cells)” value stood at 135 nM.

Turning to B14, the “IC50 (nM) … (A375 cells)” value was 134 nM.

On to B15, for which the “IC50 (nM) … (A375 cells)” value stood at 61 nM.

Turning to B16, the “IC50 (nM) … (A375 cells)” value came to 46 nM.

As to B17, the “IC50 (nM) … (A375 cells)” value worked out at 36.4 nM.

For the origin of these results see patent publication US20200399389A1 (PHANES THERAPEUTICS, published 2020).
